The values below are quoted from earlier work in publication PMC3229669.

Broadly, the Kd is the equilibrium constant for the complex coming apart.

The target of this series is histone H4 N-terminal tail (UniProt P62805).

Chain of Spt16 NT domain (O94267 1-442): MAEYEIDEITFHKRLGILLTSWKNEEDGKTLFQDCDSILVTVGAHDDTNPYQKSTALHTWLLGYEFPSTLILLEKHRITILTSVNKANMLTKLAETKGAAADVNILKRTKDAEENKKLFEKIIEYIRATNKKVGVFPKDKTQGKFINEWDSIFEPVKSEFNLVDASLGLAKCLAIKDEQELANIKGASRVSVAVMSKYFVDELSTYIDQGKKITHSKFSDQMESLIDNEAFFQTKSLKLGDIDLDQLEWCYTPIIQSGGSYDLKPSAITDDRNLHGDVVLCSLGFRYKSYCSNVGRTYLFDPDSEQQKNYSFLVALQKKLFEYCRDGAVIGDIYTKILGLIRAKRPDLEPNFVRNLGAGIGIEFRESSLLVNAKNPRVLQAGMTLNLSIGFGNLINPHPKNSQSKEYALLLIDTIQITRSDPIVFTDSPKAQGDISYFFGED

Turning to Spt16 NT domain (from UniProt O94267), the Kd was 3000 nM.
